Assay results: the Immune Epitope Database (IEDB)
Values belong to the sequence of their own block, whether it stands above or below them.

Columns and labels:
[1] = target: HLA-A*68:02; test: IEDB peptide-MHC binding, purified MHC/competitive/radioactivity; filed as Kd, often an IC50 or EC50 that approximates it; ≥ and ≤ were set here for values at or beyond the usual limits of such assays
[2] = target: HLA-B*15:01; test: IEDB peptide-MHC binding, purified MHC/competitive/fluorescence; ≥ and ≤ were set here for values at or beyond the usual limits of such assays
[3] = target: HLA-B*35:01; test: IEDB peptide-MHC binding, purified MHC/competitive/radioactivity; filed as Kd, often an IC50 or EC50 that approximates it; ≥ and ≤ were set here for values at or beyond the usual limits of such assays
[4] = target: HLA-B*07:02; test: as above
[5] = target: HLA-B*51:01; test: as above
[6] = target: HLA-A*01:01; test: IEDB peptide-MHC binding, purified MHC/direct/fluorescence; filed as Kd, often an IC50 or EC50 that approximates it; ≥ and ≤ were set here for values at or beyond the usual limits of such assays
[7] = target: HLA-A*02:01; test: as above
[8] = target: HLA-A*03:01; test: as above
[9] = target: HLA-A*11:01; test: as above
[10] = target: HLA-A*24:03; test: as above
[11] = target: HLA-A*26:01; test: as above
[12] = target: HLA-A*69:01; test: as above
[13] = target: HLA-B*07:02; test: as above
[14] = target: HLA-B*08:01; test: as above
[15] = target: HLA-B*15:01; test: as above
[16] = target: HLA-B*27:05; test: as above
[17] = target: HLA-B*40:01; test: as above
[18] = target: HLA-B*58:01; test: as above
[19] = target: HLA-A*02:02; test: IEDB peptide-MHC binding, purified MHC/competitive/radioactivity; filed as Kd, often an IC50 or EC50 that approximates it; ≥ and ≤ were set here for values at or beyond the usual limits of such assays
[20] = target: HLA-A*02:03; test: as above; settings: source organism: Trypanosoma cruzi
[21] = target: HLA-A*02:06; test: as above
[22] = target: HLA-B*46:01; test: IEDB peptide-MHC binding, purified MHC/competitive/fluorescence; filed as Kd, often an IC50 or EC50 that approximates it; ≥ and ≤ were set here for values at or beyond the usual limits of such assays; settings: source organism: Entamoeba histolytica HM-1:IMSS
[23] = target: HLA-A*24:02; test: IEDB peptide-MHC binding, purified MHC/competitive/fluorescence; ≥ and ≤ were set here for values at or beyond the usual limits of such assays
[24] = target: HLA-B*53:01; test: IEDB peptide-MHC binding, purified MHC/competitive/radioactivity; filed as Kd, often an IC50 or EC50 that approximates it; ≥ and ≤ were set here for values at or beyond the usual limits of such assays; settings: source organism: Dengue virus 4 Philippines/H241/1956
[25] = target: HLA-A*31:01; test: IEDB peptide-MHC binding, purified MHC/direct/fluorescence; filed as Kd, often an IC50 or EC50 that approximates it; ≥ and ≤ were set here for values at or beyond the usual limits of such assays
[26] = target: HLA-B*44:02; test: as above
[27] = target: HLA-A*02:01; test: IEDB peptide-MHC binding, purified MHC/competitive/fluorescence; ≥ and ≤ were set here for values at or beyond the usual limits of such assays
[28] = source organism: Vaccinia virus
[29] = source organism: Dengue virus 3 Martinique/1243/1999
[30] = source organism: Histophilus somni
[31] = source organism: Pasteurella multocida
[32] = source organism: Trypanosoma cruzi
[33] = source organism: Dengue virus 4 Philippines/H241/1956
[34] = source organism: Zaire ebolavirus
[35] = source organism: Giardia lamblia ATCC 50803
[36] = source organism: Shigella flexneri
[37] = source organism: Sudan ebolavirus

Kd ([1]; source organism: Homo sapiens): ≥ 54.3 µM
Sequence: ELEKSKRAL

Sequence: SKNNIGIEY
IC50 [2, 28]: ≥ 87.2 µM

Sequence: VATTFITPM
Kd ([3]; source organism: Dengue virus 2 Peru/IQT2913/1996): 0.146 µM

Sequence: APIQDEERDI
Kd [4, 29]: 5.06 µM
Kd [5, 29]: ≥ 69.6 µM

Kd [6, 30]: ≥ 20 µM
Kd [7, 30]: ≥ 20 µM
Kd [8, 30]: ≥ 20 µM
Kd [9, 31]: 2.82 µM
Kd [10, 31]: 0.00192 µM
Kd [11, 30]: ≥ 20 µM
Kd [12, 30]: ≥ 20 µM
Kd [13, 30]: ≥ 20 µM
Kd [14, 30]: ≥ 20 µM
Kd [15, 30]: ≥ 20 µM
Kd [16, 30]: ≥ 20 µM
Kd [17, 30]: ≥ 20 µM
Kd [18, 30]: ≥ 20 µM
Sequence: QYPAFVLFI

Sequence: FLSHDFTLV
Kd [19, 32]: 0.0619 nM
Kd [20]: 0.000142 µM
Kd [21, 32]: 0.000765 µM
Kd [1, 32]: 0.636 µM

Sequence: LPIRYQTPAV
Kd [4, 33]: 0.0267 µM
Kd [3, 33]: 0.11 µM
Kd [5, 33]: 0.198 µM

Sequence: SLAIDAYPL
Kd ([7]; source organism: SARS-CoV1): 0.145 µM
Kd ([12]; source organism: SARS-CoV1): 0.272 µM
Kd ([13]; source organism: SARS-CoV1): ≥ 33.4 µM
Kd ([14]; source organism: SARS-CoV1): 9.19 µM
Kd ([15]; source organism: SARS-CoV1): 1.08 µM
Kd ([17]; source organism: SARS-CoV1): ≥ 31.5 µM

Sequence: IAKGIDAEF
Kd [22]: 0.168 µM

Sequence: AKHGEYAPF
IC50 [23, 34]: 63.1 µM
IC50 [2, 34]: ≥ 77.4 µM

Sequence: FGMFTTNIW
Kd [24]: 0.0205 µM

Sequence: RPRGHREFC
Kd [6, 35]: ≥ 20 µM
Kd [7, 35]: ≥ 20 µM
Kd [8, 35]: ≥ 20 µM
Kd [9, 35]: ≥ 20 µM
Kd [10, 35]: ≥ 20 µM
Kd [11, 35]: ≥ 20 µM
Kd [25, 35]: ≥ 20 µM
Kd [12, 35]: ≥ 20 µM
Kd [13, 35]: 0.0984 µM
Kd [14, 35]: 8.07 µM
Kd [15, 35]: ≥ 20 µM
Kd [16, 35]: ≥ 20 µM
Kd [17, 35]: ≥ 20 µM
Kd [26, 35]: ≥ 20 µM
Kd [18, 35]: ≥ 20 µM

Sequence: DRLHPPNKL
Kd [6, 36]: ≥ 20 µM
Kd [7, 36]: ≥ 20 µM
Kd [8, 36]: ≥ 20 µM
Kd [9, 36]: ≥ 20 µM
Kd [11, 36]: ≥ 20 µM
Kd [25, 36]: ≥ 20 µM
Kd [12, 36]: ≥ 20 µM
Kd [13, 36]: ≥ 20 µM
Kd [14, 36]: ≥ 20 µM
Kd [15, 36]: ≥ 20 µM
Kd [16, 36]: ≥ 20 µM
Kd [17, 36]: 4.25 µM
Kd [26, 36]: ≥ 20 µM
Kd [18, 36]: ≥ 20 µM

Sequence: LETDLRSEF
IC50 [2, 28]: 47.5 µM

Sequence: GVPPKVVNY
IC50 [27, 34]: ≥ 199 µM
IC50 [2, 34]: ≥ 211 µM

Sequence: LLQLPRDKF
IC50 [27, 37]: 13.3 µM
IC50 [23, 37]: 4.77 µM
IC50 [2, 37]: 10.6 µM

Sequence: GPTPELEEEM
Kd [3, 29]: 4.17 µM

Kd ([19]; source organism: Homo sapiens): 14 nM
Kd ([21]; source organism: Homo sapiens): 0.0614 µM
Kd ([1]; source organism: Homo sapiens): 11.9 µM
Sequence: QLADETLLKV
